{"source": "patent US20260115256A1", "about": "(HANGZHOU SCIWIND BIOSCIENCES, published 2026)", "note": "*1 amine or outer side, *2 acyl side, *3 side chain or, on linkers, in order; H or OH if unused. Bridges are numbered along the chain shown (N, C = ends). Where no end group is shown, it is not given here. Side-chain parts run from the residue outwards. [ ]: non-standard residue; d: D form. The star is where a group is joined. C20 diacid = O=C(O)CCCCCCCCCCCCCCCCCCC(=O)*; C18 diacid = O=C(O)CCCCCCCCCCCCCCCCC(=O)*; γGlu = O=C(O)[C@H](CCC(=O)[*:2])N[*:1]; Hyp = O=C(O)[C@@H]1C[C@@H](O)CN1; AEEA = NCCOCCOCC(=O)O"}
{"target": "T1, human amylin receptor (AMY3) on CHO-K1/Ga15/AMY3 cells (human, UniProt P30988 25-474; O60896 24-148)", "T1 sequence (looked up) 1": "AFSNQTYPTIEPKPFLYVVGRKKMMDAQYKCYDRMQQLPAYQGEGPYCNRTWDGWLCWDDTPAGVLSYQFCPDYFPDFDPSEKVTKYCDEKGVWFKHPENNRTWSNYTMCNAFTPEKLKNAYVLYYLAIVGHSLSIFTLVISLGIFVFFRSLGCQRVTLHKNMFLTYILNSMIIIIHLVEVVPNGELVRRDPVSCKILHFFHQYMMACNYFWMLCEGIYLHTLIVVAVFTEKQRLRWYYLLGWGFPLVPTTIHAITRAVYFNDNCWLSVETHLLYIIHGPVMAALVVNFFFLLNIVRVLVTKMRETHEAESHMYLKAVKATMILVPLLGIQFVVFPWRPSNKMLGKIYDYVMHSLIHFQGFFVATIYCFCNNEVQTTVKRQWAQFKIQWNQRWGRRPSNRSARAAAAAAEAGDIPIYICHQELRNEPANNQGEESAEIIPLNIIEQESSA", "T1 sequence (looked up) 2": "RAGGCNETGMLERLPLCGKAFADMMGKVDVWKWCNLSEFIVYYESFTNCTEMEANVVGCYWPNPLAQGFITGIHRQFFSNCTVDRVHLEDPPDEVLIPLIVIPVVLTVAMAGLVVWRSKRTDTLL", "experiment": "cell-based or functional assay", "units": {"EC50, CRE-luciferase assay": "nM"}}
{"binder": "RCNTATCATQRLADFLRHSK([AEEA-γGlu-C20 diacid])NNLGPILPPTNVGSNT[Hyp]-NH2 (disulfide 2-7 (inferred))", "note": "[PD116]", "EC50, CRE-luciferase assay": 0.033}
{"binder": "RCNTATCATQRLADFLRHSSNNLK([γGlu-C18 diacid])PILPPTNVGSNT[Hyp]-NH2 (disulfide 2-7 (inferred))", "note": "[PD107]", "EC50, CRE-luciferase assay": 0.027}
{"binder": "RCNTATCATQRLADFLRHSSNNLK([AEEA-AEEA-γGlu-C18 diacid])PILPPTNVGSNT[Hyp]-NH2 (disulfide 2-7 (inferred))", "note": "[PD109]", "EC50, CRE-luciferase assay": 0.01}
{"binder": "RCNTATCATQRLADFLRHSK([AEEA-γGlu-C18 diacid])NNLGPILPPTNVGSNT[Hyp]-NH2 (disulfide 2-7 (inferred))", "note": "[PD117]", "EC50, CRE-luciferase assay": 0.014}
{"binder": "RCNTATCATQRLADFLRHSSNNLGK([AEEA-AEEA-γGlu-C18 diacid])ILPPTNVGSNT[Hyp]-NH2 (disulfide 2-7 (inferred))", "note": "[PD105]", "EC50, CRE-luciferase assay": 0.033}
{"binder": "RCNTATCATQRLAEFLRHSSNNLK([γGlu-C20 diacid])PILPPTNVGSNTP-NH2 (disulfide 2-7 (inferred))", "note": "[PD009]", "EC50, CRE-luciferase assay": 0.067}
{"binder": "{C20 diacid-γGlu-AEEA-AEEA}-KCNTATCATQRLADFLRHSSNNLGPILPPTNVGSNT[Hyp]-NH2 (disulfide 2-7 (inferred); not fully specified; printed as KCNTATCATQRLADFLRHSSNNLGPILPPTNVGSNT-trans-Hyp-NH2)", "note": "[PD123]", "EC50, CRE-luciferase assay": 0.068}
{"binder": "RCNTATCATQRLADFLRHSSNNLGK([AEEA-AEEA-γGlu-C20 diacid])ILPPTNVGSNT[Hyp]-NH2 (disulfide 2-7 (inferred))", "note": "[PD103]", "EC50, CRE-luciferase assay": 0.033}
{"binder": "RCNTATCATQRLADFLRHSSNK([AEEA-γGlu-C18 diacid])LGPILPPTNVGSNT[Hyp]-NH2 (disulfide 2-7 (inferred))", "note": "[PD113]", "EC50, CRE-luciferase assay": 0.017}
{"binder": "{C18 diacid-γGlu}-KCNTATCATQRLADFLRHSSNNLGPILPPTNVGSNT[Hyp]-NH2 (disulfide 2-7 (inferred); not fully specified; printed as KCNTATCATQRLADFLRHSSNNLGPILPPTNVGSNT-trans-Hyp-NH2)", "note": "[PD124]", "EC50, CRE-luciferase assay": 0.008}
{"binder": "RCNTATCATQRLADFLRHSSK([AEEA-γGlu-C20 diacid])NLGPILPPTNVGSNT[Hyp]-NH2 (disulfide 2-7 (inferred))", "note": "[PD114]", "EC50, CRE-luciferase assay": 0.029}
{"binder": "RCNTATCATQRLADFLRHSSNNLGK([γGlu-C18 diacid])ILPPTNVGSNT[Hyp]-NH2 (disulfide 2-7 (inferred))", "note": "[PD104]", "EC50, CRE-luciferase assay": 0.011}
{"binder": "{C18 diacid-γGlu-AEEA-AEEA}-KCNTATCATQRLADFLRHSSNNLGPILPPTNVGSNT[Hyp]-NH2 (disulfide 2-7 (inferred))", "note": "[PD126]", "EC50, CRE-luciferase assay": 0.028}
{"binder": "{C20 diacid-γGlu-AEEA}-KCNTATCATQRLADFLRHSSNNLGPILPPTNVGSNT[Hyp]-NH2 (disulfide 2-7 (inferred); not fully specified; printed as KCNTATCATQRLADFLRHSSNNLGPILPPTNVGSNT-trans-Hyp-NH2)", "note": "[PD122]", "EC50, CRE-luciferase assay": 0.048}
{"binder": "RCNTATCATQRLADFLRHSSNNK([AEEA-γGlu-C18 diacid])GPILPPTNVGSNT[Hyp]-NH2 (disulfide 2-7 (inferred))", "note": "[PD111]", "EC50, CRE-luciferase assay": 0.008}
{"binder": "RCNTATCATQRLADFLRHSSNNLK([AEEA-γGlu-C20 diacid])PILPPTNVGSNT[Hyp]-NH2 (disulfide 2-7 (inferred))", "note": "[PD106]", "EC50, CRE-luciferase assay": 0.026}
{"binder": "RCNTATCATQRLADFLRHSSNNLGK([AEEA-γGlu-C20 diacid])ILPPTNVGSNT[Hyp]-NH2 (disulfide 2-7 (inferred))", "note": "[PD120]", "EC50, CRE-luciferase assay": 0.023}
{"binder": "RCNTATCATQRLADFLRHSSNK([AEEA-γGlu-C20 diacid])LGPILPPTNVGSNT[Hyp]-NH2 (disulfide 2-7 (inferred))", "note": "[PD112]", "EC50, CRE-luciferase assay": 0.03}
{"binder": "RCNTATCATQRLADFLRHSSNNLK([AEEA-γGlu-C18 diacid])PILPPTNVGSNT[Hyp]-NH2 (disulfide 2-7 (inferred))", "note": "[PD108]", "EC50, CRE-luciferase assay": 0.028}
{"binder": "RCNTATCATQRLADFLRHK([AEEA-γGlu-C20 diacid])SNNLGPILPPTNVGSNT[Hyp]-NH2 (disulfide 2-7 (inferred))", "note": "[PD118]", "EC50, CRE-luciferase assay": 0.032}
{"binder": "RCNTATCATQRLADFLRHSSNNLGK([AEEA-γGlu-C18 diacid])ILPPTNVGSNT[Hyp]-NH2 (disulfide 2-7 (inferred))", "note": "[PD121]", "EC50, CRE-luciferase assay": 0.018}
{"binder": "RCNTATCATQRLADFLRHSSK([AEEA-γGlu-C18 diacid])NLGPILPPTNVGSNT[Hyp]-NH2 (disulfide 2-7 (inferred))", "note": "[PD115]", "EC50, CRE-luciferase assay": 0.011}
{"binder": "RCNTATCATQRLAEFLRHSSNNLK([γGlu-C20 diacid])PILPPTNVGSNTY-NH2 (disulfide 2-7 (inferred))", "note": "[PD017]", "EC50, CRE-luciferase assay": 0.772}
{"binder": "{C18 diacid-γGlu-AEEA}-KCNTATCATQRLADFLRHSSNNLGPILPPTNVGSNT[Hyp]-NH2 (disulfide 2-7 (inferred))", "note": "[PD125]", "EC50, CRE-luciferase assay": 0.01}
{"binder": "RCNTATCATQRLADFLRHK([AEEA-γGlu-C18 diacid])SNNLGPILPPTNVGSNT[Hyp]-NH2 (disulfide 2-7 (inferred))", "note": "[PD119]", "EC50, CRE-luciferase assay": 0.024}
{"binder": "RCNTATCATQRLADFLRHSSNNK([AEEA-γGlu-C20 diacid])GPILPPTNVGSNT[Hyp]-NH2 (disulfide 2-7 (inferred))", "note": "[PD110]", "EC50, CRE-luciferase assay": 0.039}
